Source: the Human Domainome abundance scans (Beltran et al. 2025)
± gives the uncertainty stated by the source.

Assay: abundance fitness (aPCA) (normalised: wild type 0, dead -1); higher = more abundant; growth selection in yeast, the domain comes from the species named
Settings: Homo sapiens
In the case of “Scaffold attachment factor B2 K53T, Q14151”, the abundance fitness is reported as -0.352 ± 0.11. With “Scaffold attachment factor B2 I36Q, Q14151” the abundance fitness was 0.08 ± 0.12. For “Scaffold attachment factor B2 L30P, Q14151”, the abundance fitness was -0.451 ± 0.14. For “Scaffold attachment factor B2 D48A, Q14151”, the abundance fitness was -0.181 ± 0.085. Substance “Tyrosine-protein kinase Lck I67F, P06239” has an abundance fitness of -0.102 ± 0.16. Substance “Scaffold attachment factor B2 L42P, Q14151” has an abundance fitness of -0.358 ± 0.12. Work on “Scaffold attachment factor B2 K44P, Q14151” yielded an abundance fitness of -0.509 ± 0.088. For “Scaffold attachment factor B2 R28C, Q14151”, the abundance fitness was -0.271 ± 0.15. “Scaffold attachment factor B2 K44R, Q14151” showed an abundance fitness of -0.06 ± 0.071. In the case of “Scaffold attachment factor B2 I36N, Q14151”, the abundance fitness is reported as -0.073 ± 0.13. Substance “Scaffold attachment factor B2 K53M, Q14151” has an abundance fitness of -0.338 ± 0.11. “Tyrosine-protein kinase Lck I67S, P06239” showed an abundance fitness of -0.378 ± 0.08. “Scaffold attachment factor B2 T49G, Q14151” showed an abundance fitness of -0.509 ± 0.075. “Scaffold attachment factor B2 T49C, Q14151” showed an abundance fitness of -0.266 ± 0.12. “Scaffold attachment factor B2 K61W, Q14151” showed an abundance fitness of -0.357 ± 0.1. For “Scaffold attachment factor B2 S31E, Q14151”, the abundance fitness was -0.01 ± 0.092. “Tyrosine-protein kinase Lck Q101H, P06239” gave an abundance fitness of -0.328 ± 0.16. Work on “Scaffold attachment factor B2 G50N, Q14151” yielded an abundance fitness of -0.065 ± 0.1. For “Scaffold attachment factor B2 V55H, Q14151”, the abundance fitness was -0.583 ± 0.15. Work on “Scaffold attachment factor B2 G51F, Q14151” yielded an abundance fitness of -0.882 ± 0.19. For “Scaffold attachment factor B2 K44M, Q14151”, the abundance fitness was -0.379 ± 0.14. Work on “Scaffold attachment factor B2 N46M, Q14151” yielded an abundance fitness of -0.394 ± 0.17. “Scaffold attachment factor B2 V55A, Q14151” showed an abundance fitness of -0.052 ± 0.095. “Scaffold attachment factor B2 L33D, Q14151” gave an abundance fitness of -0.307 ± 0.12. “Scaffold attachment factor B2 E66V, Q14151” gave an abundance fitness of -0.232 ± 0.1. With “Scaffold attachment factor B2 K53L, Q14151” the abundance fitness was -0.326 ± 0.078. “Scaffold attachment factor B2 L30T, Q14151” showed an abundance fitness of -0.345 ± 0.14. For “Scaffold attachment factor B2 R28I, Q14151”, the abundance fitness was -0.342 ± 0.18. Substance “Scaffold attachment factor B2 D48S, Q14151” has an abundance fitness of -0.214 ± 0.086. Substance “Scaffold attachment factor B2 G51M, Q14151” has an abundance fitness of -0.853 ± 0.12. With “Scaffold attachment factor B2 Q69W, Q14151” the abundance fitness was -0.285 ± 0.13. Work on “Scaffold attachment factor B2 S31M, Q14151” yielded an abundance fitness of -0.341 ± 0.11. For “Scaffold attachment factor B2 A40E, Q14151”, the abundance fitness was 0.022 ± 0.097. In the case of “Scaffold attachment factor B2 S31A, Q14151”, the abundance fitness is reported as -0.051 ± 0.1. For “Scaffold attachment factor B2 V64L, Q14151”, the abundance fitness was 0.006 ± 0.098. Substance “Scaffold attachment factor B2 L47A, Q14151” has an abundance fitness of -0.393 ± 0.079. Substance “Scaffold attachment factor B2 E32I, Q14151” has an abundance fitness of -0.657 ± 0.14. “Scaffold attachment factor B2 V55I, Q14151” showed an abundance fitness of -0.668 ± 0.27. “Scaffold attachment factor B2 A63W, Q14151” gave an abundance fitness of -0.63 ± 0.11. With “Scaffold attachment factor B2 K43D, Q14151” the abundance fitness was -0.147 ± 0.11. “Scaffold attachment factor B2 S31K, Q14151” gave an abundance fitness of -0.221 ± 0.11. With “Scaffold attachment factor B2 K62N, Q14151” the abundance fitness was -0.246 ± 0.14. Substance “Scaffold attachment factor B2 E32K, Q14151” has an abundance fitness of -0.355 ± 0.23. With “Scaffold attachment factor B2 K61Y, Q14151” the abundance fitness was -0.792 ± 0.32. Substance “Scaffold attachment factor B2 E32P, Q14151” has an abundance fitness of -0.474 ± 0.12. With “Scaffold attachment factor B2 R45L, Q14151” the abundance fitness was -0.201 ± 0.078. In the case of “Scaffold attachment factor B2 G51Q, Q14151”, the abundance fitness is reported as -0.704 ± 0.096. With “Scaffold attachment factor B2 S31Q, Q14151” the abundance fitness was -0.311 ± 0.095. Substance “Scaffold attachment factor B2 K62L, Q14151” has an abundance fitness of -0.212 ± 0.11. With “Scaffold attachment factor B2 E58T, Q14151” the abundance fitness was -0.203 ± 0.091. Work on “Scaffold attachment factor B2 N52F, Q14151” yielded an abundance fitness of -0.701 ± 0.18. In the case of “Scaffold attachment factor B2 V55Q, Q14151”, the abundance fitness is reported as -0.173 ± 0.1. Work on “Scaffold attachment factor B2 L47C, Q14151” yielded an abundance fitness of -0.339 ± 0.096. Substance “Scaffold attachment factor B2 R29H, Q14151” has an abundance fitness of -0.099 ± 0.15. “Scaffold attachment factor B2 R59A, Q14151” gave an abundance fitness of -0.465 ± 0.092. In the case of “Scaffold attachment factor B2 R34L, Q14151”, the abundance fitness is reported as -0.473 ± 0.089. With “Scaffold attachment factor B2 E66M, Q14151” the abundance fitness was -0.329 ± 0.12. “Scaffold attachment factor B2 K65N, Q14151” gave an abundance fitness of -0.148 ± 0.37. Work on “Scaffold attachment factor B2 R34S, Q14151” yielded an abundance fitness of 0.14 ± 0.087. “Scaffold attachment factor B2 T49S, Q14151” showed an abundance fitness of -0.159 ± 0.087. Work on “Scaffold attachment factor B2 V64A, Q14151” yielded an abundance fitness of -0.227 ± 0.096. With “Scaffold attachment factor B2 L60D, Q14151” the abundance fitness was -0.019 ± 0.14. “Scaffold attachment factor B2 L60N, Q14151” showed an abundance fitness of -0.35 ± 0.22. “Scaffold attachment factor B2 R59S, Q14151” gave an abundance fitness of -0.322 ± 0.087. For “Scaffold attachment factor B2 S54K, Q14151”, the abundance fitness was 0.031 ± 0.13. Substance “Tyrosine-protein kinase Lck I67G, P06239” has an abundance fitness of -0.552 ± 0.079. In the case of “Scaffold attachment factor B2 L56W, Q14151”, the abundance fitness is reported as -0.631 ± 0.086. In the case of “Scaffold attachment factor B2 V64T, Q14151”, the abundance fitness is reported as -0.123 ± 0.11. For “Scaffold attachment factor B2 A63E, Q14151”, the abundance fitness was -0.325 ± 0.12. For “Scaffold attachment factor B2 E67W, Q14151”, the abundance fitness was -0.85 ± 0.11. “Scaffold attachment factor B2 Q69L, Q14151” showed an abundance fitness of -0.133 ± 0.11. “Scaffold attachment factor B2 L30Q, Q14151” showed an abundance fitness of -0.284 ± 0.14. Work on “Scaffold attachment factor B2 R59V, Q14151” yielded an abundance fitness of -0.496 ± 0.097. “Scaffold attachment factor B2 L33N, Q14151” gave an abundance fitness of -0.301 ± 0.3. With “Scaffold attachment factor B2 L56M, Q14151” the abundance fitness was -0.179 ± 0.099. Work on “Scaffold attachment factor B2 N52Y, Q14151” yielded an abundance fitness of -0.587 ± 0.28. “Scaffold attachment factor B2 E66P, Q14151” showed an abundance fitness of -0.485 ± 0.16. In the case of “Scaffold attachment factor B2 A63K, Q14151”, the abundance fitness is reported as -0.695 ± 0.15. Substance “Scaffold attachment factor B2 G50A, Q14151” has an abundance fitness of -0.099 ± 0.089. In the case of “Scaffold attachment factor B2 R39G, Q14151”, the abundance fitness is reported as -0.606 ± 0.14. For “Scaffold attachment factor B2 L42M, Q14151”, the abundance fitness was -0.505 ± 0.16. “Scaffold attachment factor B2 K61L, Q14151” gave an abundance fitness of -0.282 ± 0.083. “Scaffold attachment factor B2 E58D, Q14151” showed an abundance fitness of 0.001 ± 0.12. “Scaffold attachment factor B2 R59L, Q14151” showed an abundance fitness of -0.771 ± 0.1. In the case of “Scaffold attachment factor B2 S54A, Q14151”, the abundance fitness is reported as -0.037 ± 0.077. “Scaffold attachment factor B2 R45H, Q14151” showed an abundance fitness of -0.721 ± 0.23. Work on “Scaffold attachment factor B2 K61D, Q14151” yielded an abundance fitness of -0.082 ± 0.17. For “Scaffold attachment factor B2 M57V, Q14151”, the abundance fitness was -0.189 ± 0.08. Substance “Tyrosine-protein kinase Lck I67N, P06239” has an abundance fitness of -0.206 ± 0.15. Substance “Scaffold attachment factor B2 D37R, Q14151” has an abundance fitness of -1.05 ± 0.083. “Scaffold attachment factor B2 K62E, Q14151” gave an abundance fitness of -0.002 ± 0.1. In the case of “Scaffold attachment factor B2 N46W, Q14151”, the abundance fitness is reported as -1.28 ± 0.2. Substance “Scaffold attachment factor B2 K65V, Q14151” has an abundance fitness of -0.111 ± 0.086. Substance “Scaffold attachment factor B2 D70S, Q14151” has an abundance fitness of -0.094 ± 0.15. “Scaffold attachment factor B2 N46V, Q14151” gave an abundance fitness of -0.515 ± 0.081. “Scaffold attachment factor B2 V64N, Q14151” showed an abundance fitness of -0.418 ± 0.21. Work on “Scaffold attachment factor B2 G68K, Q14151” yielded an abundance fitness of 0.232 ± 0.25. “Scaffold attachment factor B2 L38G, Q14151” gave an abundance fitness of -0.664 ± 0.07. Work on “Scaffold attachment factor B2 K44V, Q14151” yielded an abundance fitness of -0.221 ± 0.084. Substance “Scaffold attachment factor B2 T27M, Q14151” has an abundance fitness of -0.053 ± 0.15. Work on “Scaffold attachment factor B2 L38Y, Q14151” yielded an abundance fitness of -0.612 ± 0.15. With “Scaffold attachment factor B2 I36S, Q14151” the abundance fitness was 0.127 ± 0.081. With “Scaffold attachment factor B2 E66R, Q14151” the abundance fitness was -0.131 ± 0.071. Work on “Scaffold attachment factor B2 K53F, Q14151” yielded an abundance fitness of -0.445 ± 0.13. Work on “Scaffold attachment factor B2 S31T, Q14151” yielded an abundance fitness of -0.225 ± 0.48. With “Tyrosine-protein kinase Lck I67W, P06239” the abundance fitness was -0.078 ± 0.11. “Scaffold attachment factor B2 E32M, Q14151” gave an abundance fitness of -0.554 ± 0.093. Work on “Scaffold attachment factor B2 K53G, Q14151” yielded an abundance fitness of -0.473 ± 0.076. “Scaffold attachment factor B2 D37S, Q14151” gave an abundance fitness of -0.556 ± 0.1. “Tyrosine-protein kinase Lck F115Y, P06239” gave an abundance fitness of 0.148 ± 0.12.
